# Test results from patent US20150044231A1 (Novo Nordisk, published 2015).
# Numbering of substitutions follows the chain as printed. Names may count otherwise.
# T1: human C5a receptor (human, UniProt P21730 1-350)
# T1 sequence: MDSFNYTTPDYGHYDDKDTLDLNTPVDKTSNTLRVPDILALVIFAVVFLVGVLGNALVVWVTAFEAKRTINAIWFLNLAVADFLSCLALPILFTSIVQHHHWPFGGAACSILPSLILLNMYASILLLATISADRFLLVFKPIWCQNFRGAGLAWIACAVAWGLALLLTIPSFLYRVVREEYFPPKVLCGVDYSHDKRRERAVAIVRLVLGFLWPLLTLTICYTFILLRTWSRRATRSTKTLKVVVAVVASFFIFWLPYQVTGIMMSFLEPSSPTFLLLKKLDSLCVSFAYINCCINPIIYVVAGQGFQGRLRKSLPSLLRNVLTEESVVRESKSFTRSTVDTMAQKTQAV
# B1: 35F32A3 (antibody, V domains shown)
# VH: QVQLVESGGGLVRPGRSLRLSCAASGFTFRDYGMHWVRQAPGKSLEWVAVIWFDGINKYYGDSVKGRFTISRDNSKNTLYLQMNSLRAEDTAMYYCVGTYFGPGTTEFFQHWGQGTLVTVSS
# VL: EIVLTQSPATLSLSPGERATLSCRASQSVSSYLAWYQQKPGQAPRLLIYDASNRATGIPARFSGSGSGTDFTLTISSLEPEDFAVYYCQQRSNWPTFGPGTKVDIKR
# notes: Human monoclonal antibody from HumAb mice, purified from hybridoma supernatant
# B2: 35F12A2 (antibody, V domains shown)
# VH: QVQLVESGGGVVQPGRSLRLSCVASGFTFSNYGMHWVRQAPGKGLEWVAVIWYDGINKYYADSVKGRFTISRDNSKSTLYLQMNSLRAEDTAVYYCAGTYYTSGSSKHFQPWGQGTLVTVSS
# VL: B1 VL with A34S
# notes: as for B1
# B3: 32F3A6 GL (antibody, human IgG1, V domains shown)
# VH: EVQLVESGGGLVQPGGSLRLSCAASGFTFSSYVMHWVRQATGKGLEWVSAIDTGGGTYYADSVKGRFTISRENAKNSLYLQMNSLRAGDTAVYYCARDYYYYASGSYYKAFDIWGQGTMVTVSS
# VL: EIVLTQSPGTLSLSPGERATLSCRASQSVSSRYLAWYQQKPGQAPRLLIYGASSRATGIPDRFSGSGSGTDFTLTISRLEPEDFAVYYCQQYGSPLTFGQGTKLEIKR
# B4: 32F3A6 (antibody, V domains shown)
# VH: B3 VH with E6Q, Q13H, A24G, T41P, E72D, G88E, T90M
# VL: B3 VL
# notes: as for B1
# B5: human C5a (ligand, UniProt P01031 678-751, looked up)
# chain: TLQKKIEEIAAKYKHSVVKKCCYDGACVNNDETCEQRAARISLGPRCIKAFTECCVVASQLRANISHKDMQLGR
# notes: C5a is only a fragment of it; also called hC5a
# B6: Ref Ab Q variable region on IgG2 reference (antibody, part only; not given: Variable regions of Ref Ab Q, not shown: another chain or arm of the molecule)
# constant: ASTKGPSVFPLAPCSRSTSESTAALGCLVKDYFPEPVTVSWNSGALTSGVHTFPAVLQSSGLYSLSSVVTVPSSNFGTQTYTCNVDHKPSNTKVDKTVERKCCVECPPCPAPPVAGPSVFLFPPKPKDTLMISRTPEVTCVVVDVSHEDPEVQFNWYVDGVEVHNAKTKPREEQFNSTFRVVSVLTVVHQDWLNGKEYKCKVSNKGLPAPIEKTISKTKGQPREPQVYTLPPSREEMTKNQVSLTCLVKGFYPSDIAVEWESNGQPENNYKTTPPMLDSDGSFFLYSKLTVDKSRWQQGNVFSCSVMHEALHNHYTQKSLSLSPGK
# B7: Ref Ab Q variable region on IgG4 (S228P) E233P, F234V, L235A (antibody, part only; not given: Variable regions of Ref Ab Q, not shown: another chain or arm of the molecule)
# constant: ASTKGPSVFPLAPCSRSTSESTAALGCLVKDYFPEPVTVSWNSGALTSGVHTFPAVLQSSGLYSLSSVVTVPSSSLGTKTYTCNVDHKPSNTKVDKRVESKYGPPCPPCPAPPVAGGPSVFLFPPKPKDTLMISRTPEVTCVVVDVSQEDPEVQFNWYVDGVEVHNAKTKPREEQFNSTYRVVSVLTVLHQDWLNGKEYKCKVSNKGLPSSIEKTISKAKGQPREPQVYTLPPSQEEMTKNQVSLTCLVKGFYPSDIAVEWESNGQPENNYKTTPPVLDSDGSFFLYSRLTVDKSRWQEGNVFSCSVMHEALHNHYTQKSLSLSLGK
# B8: 35F24A3 (antibody, V domains shown)
# VH: EVKLVESGGGLVKPGGSLKLSCSASGFAFSNYDMSWVRQTPEKRLEWVAAFSSDGYTFYPDSLKGRFTISRDNARNTLYLQMSSLGSEDTALYCCARHADYANYPVMDYWGQGTSVTVSS
# VL: DIQMTQSPSSLSASVGDRVTITCRASQGISSWLAWYQQKPEKAPKSLIYAASSLQSGVPSRFSGSGSGTDFTLTISSLQPEDFATYYCQQYNSYPRTFGQGTKVEIKR
# notes: as for B1
# B9: Ref Ab Q variable region on IgG2/IgG4 reference (antibody, part only; not given: Ref Ab Q variable regions, part only)
# heavy, part: ASTKGPSVFPLAPCSRSTSESTAALGCLVKDYFPEPVTVSWNSGALTSGVHTFPAVLQSSGLYSLSSVVTVPSSNFGTQTYTCNVDHKPSNTKVDKTVERKCCVECPPCPAPPVAGPSVFLFPPKPKDTLMISRTPEVTCVVVDVSQEDPEVQFNWYVDGVEVHNAKTKPREEQFNSTYRVVSVLTVLHQDWLNGKEYKCKVSNKGLPSSIEKTISKAKGQPREPQVYTLPPSQEEMTKNQVSLTCLVKGFYPSDIAVEWESNGQPENNYKTTPPVLDSDGSFFLYSRLTVDKSRWQEGNVFSCSVMHEALHNHYTQKSLSLSLGK
# Experiments:
# His-FcγRIIB = His-FcγRIIB (UniProt P31994); test: SPR (BIAcore T100), Fc variant immobilised, His-FcγR as analyte
# His-FcγRI = His-FcγRI (UniProt P12314); test: as above
# His-FcγRIII (158V) = His-FcγRIII (158V) (UniProt P08637); test: as above
# His-FcγRIIA (131H) = His-FcγRIIA (131H) (UniProt P12318); test: as above
# His-FcγRIIA (131R) = His-FcγRIIA (131R) (UniProt P12318); test: as above
# His-FcγRIII (158F) = His-FcγRIII (158F) (UniProt P08637); test: as above
# human C5a receptor [1] = molecular target: T1, human C5a receptor; test: cell-based or functional assay
# human C5a receptor [2] = molecular target: T1, human C5a receptor; test: SPA, displacement of 125I-hC5a from RBL-hC5aR membranes
# Procedure: (§1) A detailed description of the SPA is provided in U.S. Pat. No. 4,568,649 and protocols provided by the manufacturer (Amersham Biosciences). Briefly, receptor-carrying membrane fragments purified from RBL-hC5aR cells bind to scintillating micro particles coated with wheat germ agglutinin (WGA). […] Specific for the SPA-principle, only radio isotope and particles in immediate proximity of each other will emit light. […] The % displacement was calculated as follows: […]
# human C5a receptor [3] = molecular target: T1, human C5a receptor; test: cell-based or functional assay; remark: listed apart in the source
# human C5a receptor [4] = molecular target: T1, human C5a receptor; test: cell-based or functional assay; remark: listed apart in the source
# human C5a receptor [5] = molecular target: T1, human C5a receptor; test: SPA, unlabelled hC5a displacing 125I-hC5a from RBL-hC5aR membranes
# Procedure: as §1
# Chain of His-FcγRIIB (P31994 46-217 limits assumed): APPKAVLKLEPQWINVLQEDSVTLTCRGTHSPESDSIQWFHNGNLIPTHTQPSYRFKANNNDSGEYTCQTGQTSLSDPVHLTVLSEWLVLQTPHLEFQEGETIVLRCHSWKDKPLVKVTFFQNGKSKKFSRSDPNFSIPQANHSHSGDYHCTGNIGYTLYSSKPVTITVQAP
# Chain of His-FcγRI (P12314 16-288 limits assumed): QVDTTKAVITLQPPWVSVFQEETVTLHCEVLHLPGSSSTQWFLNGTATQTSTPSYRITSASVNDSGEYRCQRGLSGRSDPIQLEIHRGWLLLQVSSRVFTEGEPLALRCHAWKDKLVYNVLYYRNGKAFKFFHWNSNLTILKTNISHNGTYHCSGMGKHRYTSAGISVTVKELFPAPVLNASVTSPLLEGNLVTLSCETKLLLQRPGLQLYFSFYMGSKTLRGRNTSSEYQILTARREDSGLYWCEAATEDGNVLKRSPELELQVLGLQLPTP
# Chain of His-FcγRIIA (131R) (P12318 36-218 H167R limits assumed): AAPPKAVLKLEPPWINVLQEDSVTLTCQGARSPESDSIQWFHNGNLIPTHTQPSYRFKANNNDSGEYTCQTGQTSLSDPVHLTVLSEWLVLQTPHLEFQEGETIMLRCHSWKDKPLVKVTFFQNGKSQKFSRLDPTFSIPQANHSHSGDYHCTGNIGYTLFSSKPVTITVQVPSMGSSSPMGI
# Chain of His-FcγRIIA (131H) (P12318 36-218 limits assumed): as the sequence (P12318 36-218 H167R limits assumed) above, with R132H counted along it
# Chain of His-FcγRIII (158V) (P08637 17-208 F176V limits assumed): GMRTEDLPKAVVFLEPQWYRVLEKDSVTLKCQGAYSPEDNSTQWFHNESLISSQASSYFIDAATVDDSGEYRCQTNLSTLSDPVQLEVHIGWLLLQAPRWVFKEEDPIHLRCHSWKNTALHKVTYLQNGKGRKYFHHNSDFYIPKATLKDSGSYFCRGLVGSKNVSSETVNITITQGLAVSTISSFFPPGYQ
# Chain of His-FcγRIII (158F) (P08637 17-208 limits assumed): as the sequence (P08637 17-208 F176V limits assumed) above, with V160F counted along it
molecule,measurement,setting,value
"Ref Ab Q variable region on IgG2/4 V234A, G236A (antibody)",Kd,His-FcγRIIB,5340 nM
Ref Ab Q variable region on IgG1 N297Q (antibody),Kd,His-FcγRI,360 nM
Ref Ab Q variable region on IgG4 (S228P) N297Q (antibody),Kd,His-FcγRI,130 nM
"Ref Ab Q variable region on IgG1 L234A, L235E (antibody)",Kd,His-FcγRIII (158V),960 nM
"Ref Ab Q variable region on IgG1 L234A, L235E, G237A, A330S and P331S (antibody)",Kd,His-FcγRIIB,2100 nM
Ref Ab Q variable region on IgG4 (S228P) reference (antibody),Kd,His-FcγRI,2.71 nM
same,Kd,His-FcγRIIA (131H),3520 nM
same,Kd,His-FcγRIIA (131R),800 nM
same,Kd,His-FcγRIIB,1080 nM
Ref Ab Q variable region on IgG1 reference (antibody),Kd,His-FcγRI,0.664 nM
same,Kd,His-FcγRIIA (131H),640 nM
same,Kd,His-FcγRIIA (131R),950 nM
same,Kd,His-FcγRIIB,420 nM
same,Kd,His-FcγRIII (158F),330 nM
B1,Migration of human neutrophils (in % compared to migration in the absence of antibody),human C5a receptor [1],11%
same,IC50,human C5a receptor [2],0.95 nM
B2,Migration of human neutrophils (in % compared to migration in the absence of antibody),human C5a receptor [1],19%
same,IC50,human C5a receptor [2],2.04 nM
B3,"IC50, Neutrophil migration (Chemotaxis) Assay",human C5a receptor [3],1 µg/mL
same,IC50 CD11b up-regulation,human C5a receptor [4],0.7 µg/mL
same,IC50 CD62L down-regulation,human C5a receptor [4],0.5 µg/mL
same,IC50 Calcium-flux assay,human C5a receptor [4],1.8 µg/mL
B4,Migration of human neutrophils (in % compared to migration in the absence of antibody),human C5a receptor [1],2%
same,IC50,human C5a receptor [2],1.9 nM
B5,IC50,human C5a receptor [5],4.1 nM
B6,Kd,His-FcγRIIA (131H),220 nM
same,Kd,His-FcγRIIA (131R),2790 nM
same,Kd,His-FcγRIIB,1540 nM
same,Kd,His-FcγRIII (158V),1500 nM
B7,Kd,His-FcγRI,380 nM
B8,Migration of human neutrophils (in % compared to migration in the absence of antibody),human C5a receptor [1],30%
same,IC50,human C5a receptor [2],2.97 nM
B9,Kd,His-FcγRIIA (131H),1030 nM
same,Kd,His-FcγRIIB,1830 nM
